Each block holds one molecule with its values, some of them ahead of it.
Columns and labels:
[1] = tested on: Human Pulmonary Fibroblasts; test: Fibroblast-to-Myofibroblasts Transition (FMT), αSMA expression; assay type: cell-based; conditions: for inhibition of αSMA expression / FMT: TGFβ-induced FMT; for Inhibition of FMT: Yes/No
Description: Human Pulmonary Fibroblasts (ScienCell) were cultured in complete Fibroblast Growth Medium (ScienCell) until 80% confluent. Cells were washed and harvested using Accutase. Cells were seeded onto tissue culture-treated 96 well plates at 20,000 cells/well in complete Fibroblast Growth Medium. After 24 hours, cells were washed and starved in serum reduced medium for an additional 24 hours. After starvation, cells were treated with TGFβ-1 (R&D Systems) with or without anti-α11 antibodies. A polyclonal rabbit anti-human α11 antibody was used as a positive control. Appropriate IgG isotype controls were also included. After 48 hours, cells were harvested, fixed, permeabilized and stained with AlexaFluor488 Labeled Anti-αSMA (α-smooth muscle actin) (Invitrogen). Cells were acquired on a FACS Verse (Benton Dickson) to determine expression levels of αSMA. Data were analyzed by gating on single cells and determining the geometric Mean Fluorescence Intensity (gMFI) in the FITC channel for each sample. gMFI for each sample was normalized to the untreated control and presented as % inhibition.
In addition to the binding abilities described above, it is important for an anti-α11β1 antibody to inhibit the fibroblast-to-myofibroblast transition (FMT). It is now appreciated that myofibroblasts are a heterogeneous cell population, existing in different activation states, with the main function of producing and contracting collagen extracellular matrix (ECM). FMT is a multi-step event that is controlled by a changing mechanical environment in tissues undergoing repair. TGFβ is one of the potent factors that potentiates this process and alpha smooth muscle actin (αSMA) is one of the main markers that becomes overexpressed when fibroblasts are undergoing the transition to becoming myofibroblasts. The presence of αSMA enhances fibroblast contraction and guides myofibroblast activation through an intracellular feedback loop. Because αSMA is the main molecular marker of myofibroblasts, the ability of the novel anti-α11β1 mAbs to inhibit αSMA expression in TGFβ-induced FMT was tested.

[2] = target: T1, α11β1 expressed on the surface of CHO-K1 cells (Homo sapiens, UniProt Q9UKX5); test: FACS antibody binding to CHO-K1 cells expressing human α11; conditions: binding Yes/No
T1 construct: expressed in transfected cells; host or cells: CHO-K1
T1 sequence (Q9UKX5 23-1188): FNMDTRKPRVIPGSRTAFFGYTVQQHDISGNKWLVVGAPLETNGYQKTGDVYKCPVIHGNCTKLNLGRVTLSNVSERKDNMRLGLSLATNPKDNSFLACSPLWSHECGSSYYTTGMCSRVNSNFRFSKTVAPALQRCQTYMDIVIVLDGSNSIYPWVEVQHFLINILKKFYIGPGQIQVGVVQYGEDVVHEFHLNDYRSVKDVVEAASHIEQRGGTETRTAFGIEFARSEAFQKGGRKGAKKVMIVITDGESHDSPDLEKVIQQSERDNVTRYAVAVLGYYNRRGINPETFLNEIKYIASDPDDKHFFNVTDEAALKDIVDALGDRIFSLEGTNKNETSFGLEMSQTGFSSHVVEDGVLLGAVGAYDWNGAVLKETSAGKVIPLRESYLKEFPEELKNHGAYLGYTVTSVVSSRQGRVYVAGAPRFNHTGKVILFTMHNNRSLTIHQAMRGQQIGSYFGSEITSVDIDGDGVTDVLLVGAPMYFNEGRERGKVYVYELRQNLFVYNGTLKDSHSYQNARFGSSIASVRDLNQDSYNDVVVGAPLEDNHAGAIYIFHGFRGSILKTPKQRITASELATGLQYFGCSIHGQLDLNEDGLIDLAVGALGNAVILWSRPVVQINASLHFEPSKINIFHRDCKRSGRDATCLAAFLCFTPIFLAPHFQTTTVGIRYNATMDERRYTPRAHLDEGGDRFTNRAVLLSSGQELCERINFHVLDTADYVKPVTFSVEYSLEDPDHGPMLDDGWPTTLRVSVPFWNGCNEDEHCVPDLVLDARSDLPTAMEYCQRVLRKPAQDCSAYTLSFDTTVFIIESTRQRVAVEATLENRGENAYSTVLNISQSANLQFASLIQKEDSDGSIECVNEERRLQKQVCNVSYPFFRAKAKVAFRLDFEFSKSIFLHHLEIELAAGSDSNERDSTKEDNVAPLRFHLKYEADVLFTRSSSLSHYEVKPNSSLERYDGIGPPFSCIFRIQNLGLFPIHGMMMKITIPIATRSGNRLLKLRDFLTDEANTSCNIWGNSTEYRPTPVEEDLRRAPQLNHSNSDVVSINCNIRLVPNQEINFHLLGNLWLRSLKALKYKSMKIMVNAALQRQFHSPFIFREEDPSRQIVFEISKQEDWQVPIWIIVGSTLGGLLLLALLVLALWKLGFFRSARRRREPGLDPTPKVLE
Description: 200,000 cells (wild-type CHO-K1 cells or CHO-K1 cells expressing human α11) were incubated with each antibody at desired concentrations in FACS buffer for 30 min at 4° C. Then, the cells were washed with FACS buffer and incubated with secondary antibody at 1:100 dilution for 30 minutes at 4° C. Cells were then washed and fixed with 1% PFA in PBS for 20 minutes at room temperature; washed again and read on a cytometer in FACS buffer.
Since integrins are large, transmembrane receptors that exist in different conformational shapes, experiments were performed to confirm that the novel antibodies also bound cell-expressed α11β1. A CHO-K1 cell line that endogenously expressed high levels of the β1 subunit was engineered to stably express human α11 (CHO-K1 hu α11).
Binding EC50 was estimated using data from Fluorescence-activated cell sorting (FACS) performed with CHO-K1 hu α11β1 cells.

B1: 16E10: rabbit anti-α11β1 mAb; heavy chain SEQ ID NO: 161, light chain SEQ ID NO: 162 (antibody)
heavy: METGLRWLLLVAVLKGVQCQSLEESGGDLVKPGASLTLTCRVSGFSFSSSYYMCWVRQAPGKGLEWIACIGTTRGSTYYATWAKGRFTISKISSTTVTLQMTSLTDADTATYFCARDATGYRINTIGLYFNLWGPGTLVTVSSGQPKAPSVFPLAPCCGDTPSSTVTLGCLVKGYLPEPVTVTWNSGTLTNGVRTFPSVRQSSGLYSLSSVVSVTSSSQPVTCNVAHPATNTKVDKTVAPSTCSKPMCPPPELPGGPSVFIFPPKPKDTLMISRTPEVTCVVVDVSQDDPEVQFTWYINNEQVRTARPPLREQQFNSTIRVVSTLPIAHQDWLRGKEFKCKVHNKALPAPIEKTISKARGQPLEPKVYTMGPPREELSSRSVSLTCMINGFYPSDISVEWEKNGKAEDNYKTTPTVLDSDGSYFLYSKLSVPTSEWQRGDVFTCSVMHEALHNHYTQKSISRSPGK
light: MDTRAPTQLLGLLLLWLPGARCAFELTQTPSSVEAAVGGTPTIKCQASQTIYSYLSWYQQKPGQPPKLLIYEASKLASGVPSRFSGSGSGTDYTLTISDLECADAATYYCQSYHGTASTEYNTFGGGTEVVVRGDPVAPTVLIFPPAADQVATGTVTIVCVANKYFPDVTVTWEVDGTTQTTGIENSKTPQNSADCTYNLSSTLTLTSTQYNSHKEYTCKVTQGTTSVVQSFNRGDC
inhibition of αSMA expression / FMT [1]: inhibit both ligand binding and FMT | Inhibition of FMT [1]: Yes | CHO-K1 FACS [2]: Yes

B4: 6-O12: mouse anti-α11β1 mAb; VH SEQ ID NO: 117, VL SEQ ID NO: 118 (antibody, V domains shown)
VH: EVKLEESGGGLVQPGGSMKLSCAASGFTFSDAWMDWVRQSPEAGLEWVAEIRNKAHNPATYYAESVKGRFTISRDDSKSSVYLQMNSLRAEDTGIYYCTLVAPDAMDYWGQGTSVTVSS
VL: DIVMSLSPSSLAVSVGEKVTMSCKSSQSLLYSRNQKNYLAWYQQKPGQSPKLLIYWASTRASGVPDRFTGSGSGTDFTLTISSVKAEDLAVYYCQQYYSYPYTFGGGTKLEIK
Inhibition of FMT [1]: No | CHO-K1 FACS [2]: No

B5: 3-G5: mouse anti-α11β1 mAb; VH SEQ ID NO: 135, VL SEQ ID NO: 136 (antibody, V domains shown)
VH: QVQLQQSGAELARPGASVKLSCKASGYTFTSYGISWVKQRTGQGLEWIGEIFPRSSNTYYNEKFKGKATLTADKSSSTVYMEFRSLTSEDSAVYFCAREGGLAWFAYWGQGTLVTVSA
VL: DVVMTQTPLTLSVTIGQPASISCKSSQSLLYTNGNTYLNWLLQRPGQSPKRLIYLVSKLDSGIPDRFSGSGSGTDFTLRISRVEAEDLGVYYCLQSTHFPFTFGSGTKLEIK
Inhibition of FMT [1]: No | CHO-K1 FACS [2]: No

B6: 10-F23: mouse anti-α11β1 mAb; VH SEQ ID NO: 125, VL SEQ ID NO: 126 (antibody, V domains shown)
VH: QVTLKESGPGILQPSQTLSLTCSFSGFSLSTFAMGVGWIRQPSGKGLEWLAHIWWDDDKYYNPALKSRLTISKDTSKNHVFLKIANVDTADTATYYCARMPLTFYFDYWGQGTTLTVSS
VL: DVLLTQTPLSLPVSLGDQASISCRSSQSIVHSNGHTYLEWYLQKPGQSPKLLIYKVSNRFSGVPDRFSGSGSGTDFTLKISRVEAEDLGVYYCFQGSHVPFTFGGGTKLEIK
Inhibition of FMT [1]: No | CHO-K1 FACS [2]: Yes

More lines, main results first:

CHO-K1 FACS [2]: Yes
B2: 24E4G6: rat anti-α11β1 mAb; VH SEQ ID NO: 147, VL SEQ ID NO: 148 (antibody, V domains shown)
VH: MELELSLIFIFSLLKDVQCEVQLVESGGSLVQPGGSLKLSCVASGYTFSNYWMDWVRQSPGKSLEWIGEINTDGRRTNYAPSIKDRFTISRDNAKSTLYLQMSNVKSDDTAIYYCTILRVYPHYFDYWGQGVMVTVSS
VL: MMSPAQFLFLLMLWIQEARGDVVMTQTPPSLSVAIGQSVSISCKSSQSLVYSDGETYLHWFLQSPGRSPKRLIYHVSNLGSGVPDRFSGTGSLTDFTLRISRVEAEDLGVYYCAQTTHFPPTFGAGTKLELK
inhibition of αSMA expression / FMT [1]: significantly inhibited αSMA expression | Inhibition of FMT [1]: Yes

CHO-K1 FACS [2]: Yes
B3: 16G7: rabbit anti-α11β1 mAb; heavy chain SEQ ID NO: 159, light chain SEQ ID NO: 160 (antibody)
heavy: METGLRWLLLVAVFKGVQCQEQLVESGGDLVKPGASLTLTCTASGFSFNKNYWMCWVRQAPGKGLEWIGCIYNGDGNTYYASWVNGRFTISKTSSTTVTLQMTSLTVADTAIYFCARLLNMWGPGTLVTVSSGQPKAPSVFPLAPCCGDTPSSTVTLGCLVKGYLPEPVTVTWNSGTLTNGVRTFPSVRQSSGLYSLSSVVSVTSSSQPVTCNVAHPATNTKVDKTVAPSTCSKPMCPPPELPGGPSVFIFPPKPKDTLMISRTPEVTCVVVDVSQDDPEVQFTWYINNEQVRTARPPLREQQFNSTIRVVSTLPIAHQDWLRGKEFKCKVHNKALPAPIEKTISKARGQPLEPKVYTMGPPREELSSRSVSLTCMINGFYPSDISVEWEKNGKAEDNYKTTPTVLDSDGSYFLYSKLSVPTSEWQRGDVFTCSVMHEALHNHYTQKSISRSPGK
light: MDTRAPTQLLGLLLLWLPGARCADIVMTQTPASVEAAVGGTVTIKCQASESIGNALAWYQQKPGQPPKLLIYTAATLASGVPSRFSGSGSGTEFTLTISGVQCDDAATYYCQSYYFTSVSSYGNAFGGGTEVVVKGDPVAPTVLIFPPAADQVATGTVTIVCVANKYFPDVTVTWEVDGTTQTTGIENSKTPQNSADCTYNLSSTLTLTSTQYNSHKEYTCKVTQGTTSVVQSFNRGDC
inhibition of αSMA expression / FMT [1]: inhibit FMT | Inhibition of FMT [1]: Yes

CHO-K1 FACS [2]: Yes
B7: 40G10H11: rat anti-α11β1 mAb; VH SEQ ID NO: 157, VL SEQ ID NO: 158 (antibody, V domains shown)
VH: MDIRLSLGFLVLFIKGDQCAVQLVESGGGLVQPGRSLKLSCAASRITFTDYYMAWVRQAPTKGLEWVATISSDGGDTFYRDSVKGRFTISRDNAKSTLYLQMVSLRSEDTATYYCSTDRGAQFGYWGQGTLVTVSS
VL: MAPVQLLGLLLIWLPAMRCDIQMTQSPSFLSASVGDRVSINCKASQNVHENLNWYQQKLGEAPKRLIYNTNNLQTGIPSRFSGSGSGADYTLTISSLQPEDFATYFCLQHNAFPYTFGPGTKLELK
inhibition of αSMA expression / FMT [1]: significantly inhibited αSMA expression | Inhibition of FMT [1]: Yes

From patent publication US12460006B2, “Antibodies against integrin alpha 11 beta 1” (Momenta Pharmaceuticals, Inc., priority 2019, dated 2025)
